From the domain aggregation screens of Martell et al. (2025) come the findings set out here.

This data set is described as follows: soluble fraction after stress (log2 fold change); higher = more stays soluble; pooled small domains, quantitative proteomics. The conditions noted are these: stress: pH 4. The procedure, abridged: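 Values are on a log2 scale, where higher means more of the domain stayed soluble after pH 4 stress. They are fold changes in the soluble amount of each domain from pooled custom libraries, measured by high-throughput quantitative proteomics. The fold change is taken to reflect aggregation propensity.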

As for “HMNPDMIAGVLKVPAAAGRLRSALFELGVVDDESYDDDGASRLTVTASQSDLERIVAQAGLVFEDVLVERR”, the “soluble fraction (log2)” value was -1.3.
Turning to “HMNPEAFIQTLKQILSTYEKNDPIYLQEIKADLVKKFRIEIPINALETYLKENGYSNIYLKR”, the “soluble fraction (log2)” value was -0.516.
For “HMNPEDLSGVRKAAILLLTMDDEVTKDVMKGLDEEEIEAIGKEITNLKLIPDHVVHRVQEEFMTKVSK” the value was -0.375; for “HMNPESRRSELIDAATKLFFSRGYTATSIRDILDAVDDRTASPSVFYYYFESKEAIYQAVLQRYTD”, -1.34.
Turning to “HMNPETPAQQAVRKRLIVSVQFYRRLKDTPLKAVWQVAARDTLVNGYNLFLKRNIHAFNDRTLSTPSALS”, the “soluble fraction (log2)” value was 0.089.
As to “HMNPFPDNTAEVLSQFKNIIVPELNTGQLSKLLRARYLVDTVGINKVEGLPFTAQELEEKIESLINSF”, the “soluble fraction (log2)” value is -0.705.
Regarding “HMNPGQIIRKLRQDQGMTLAVLAKYANLDPGNLSRIERDDLNISFNLLEKLSLILNVSPIVFFH”, the “soluble fraction (log2)” value was -0.0716.
Next, “HMNPLSELSFEERRELFLEAAVRLFEEKGYKNTSVEDIAGELGFTKKVFYYYWKNKREIVQEIHDRGMA”: -0.986; “HMNPNFIEVSHGRLRVNVPLSAYEGTTYHIKPEEAEKLKRTLASRYPWLTPNALKVFIEEAEQAMRERIQ”: 0.217; “HMNPSKEFNMSDLLKAKMVGDVSAAKRREKAGALLHIGYGNAKTFLKKLNHFSISREEWDKVIAAMEEF”: 0.0295.
Consider “HMNPSVSSDERILLQKALGILSAEQKQIVMLHAVAGIKHREIAKLLDMPIATVLSKYSRAVNKLRHAMEA”, for which the “soluble fraction (log2)” value was -0.298.
For the sequence “HMNPTTDFFKLEGIDATRILVFDQVGRQVAQFSQPAQQMDIQALPAGVYALRIENADGQVYSARIVK”, the “soluble fraction (log2)” value is -0.773.
In the case of “HMNPVVATTIILDGEIIKDNLAEANLSEEWLLEELKRQNFNDVKEVFYAEWLDGKQLFAYPYTK”, the “soluble fraction (log2)” value is -0.789.
Next, “HMNQDIIEIGNNIQKIRKKNGISQSVLAEKIDVAGNSIYRMEGATTVMGVDKLINIADALNTSPMDILPAR”: 0.0428.
In the case of “HMNQDMINFDKLSVRLKNVLIENNLKTVDSLLNYPAEEFEYLTNLGEKTLQELLTYRNELAASNNIQ”, the “soluble fraction (log2)” value was -1.17.
“HMNQGKLIEMLQEMKEIAHSQNNYLTKNEIANYLGDTVLSKEQLQAVYHYLGENHIEVEGYVYIP”: the “soluble fraction (log2)” value is -0.51.
For the sequence “HMNQIATSTQAIITTLSFLNTSSIFKLPVGDTASRPTGVSPGTLRFNSQEDSAEIYKADDGTGSAGWTEVA”, the “soluble fraction (log2)” value is -1.3.
Next, “HMNQIDEATAATITTLNFLNTNSEFKIPVGDTATRPGTPAIGMMRFNSENDKAEIYVADFDGDGNPGWINL”: -1.52; “HMNQILDFTREVKNLPEQDKIKIVEALWSIIYSNKDADIYETNLMRRLAGLLYIDNKTMGDIKEKIKQNL”: -0.421.
Regarding “HMNQNHFLDSVVEFAKDEASRAFFQKAVKKLGEGLVEEAMGEVKMREADGSVNSRAPYFIALLENWMENR”, the “soluble fraction (log2)” value is -0.128.
As to “HMNQNIYVPKLEGLQIEEASSILKSKGLNIEITDSIFRKDAVPGAIIEQTPKPNSRVKTGRNIYVSIYSK”, the “soluble fraction (log2)” value is -0.199.
For the sequence “HMNQSEMIGSRLKEERLQQKLTLKQLSEKVGLSIGYLSQVERGYGTLSLSALKKLSSALGLEMSTFFD”, the “soluble fraction (log2)” value was determined as 0.121.
As to “HMNQTGQYENAAKRFNQLITIDSSDKRAYLQLGISNYNLGNKEKADSLFNIIRNSKDKLLIEELDNFLT”, the “soluble fraction (log2)” value is -0.169.
For “HMNQYALTDREKNVLGLLVDGLSYKMIADKENISFHTVNAHVRKIYEKLHVHSLAEAVSKALKENL” the value was 0.056; for “HMNQYRKLDGDVQNQIIYILSEYPKLPATIVYQRLLDTNTIVKKDVSLSTVNRFVQKYKDSKGIT”, 0.0672.
For the sequence “HMNREDYIKAIFKIAEREGEASNQRIADSLGVSRASASEMVKKLIQEGFVVAEGRQLSLSAEGERIA”, the “soluble fraction (log2)” value was -0.32.
Next, “HMNREEKKALTRRQIIDVATRLFRQHGIHNTDLKTIATEAGVSVVTFYKYFDSKEALIGTIAAEQ”: -0.23; “HMNRNHVFDSNGPDLRLRGTAQQLFEKYLQLGRDATSGGDRVMAEGYFQHAEHYFRILNAMNQAAMQH”: -0.0835.
Consider “HMNRPYETLFTGLTTDEASAIVGKLEEYGAADYKIEGDTIKVPAAQEPDLKAKLLLDGYPKS”, for which the “soluble fraction (log2)” value is 0.0842.
Turning to “HMNRTEYMAALRRALSVLPEEERASALRYYEEYFDDAGPENEEKVIADLGAPEKVAGQILADYRE”, the “soluble fraction (log2)” value was -0.462.
For “HMNSDQMKEHLDNLVDMAKKNDNTLIDTEIVNYFVGKPDIELNTDMMTKIFDYLDEHHVAVLS” the value was -1.85; for “HMNSEFPFNGGRIVDNVPANRLQIFFDEKPDADVRTRLKQNGFRWAPNSGAWQSYRHGYTLDWARREFNA”, -0.197.
For “HMNSEPKTKLQEIAQERGLAAPVYETTHTGPDHDRIFSASVTVGDVVAAGEARSRKGAESEAAIAAIKALG” the value was 0.155; for “HMNSFGWESLIDKEGIADTDLHPSGWVRIDDRRIFVVSEGDFIDKGSGVTVLSVDGNRVVVRELI”, -1.03; for “HMNSHLEEGRHGLQIGDPGIVRARIESDPEGETDMPVVVIDGRNISWNEFGRMVATYTGFQFKLEM”, -0.58.
For “HMNSHQNELDNALTEAHTASRRLLEGTDEYLDLSSQPAYIRRLQHLLAQKYNLGSLSSGVEPNRHIRLLQ” the value was -0.174; for “HMNSIDIENELVKIIEKNGQPMSFDDLVFKLDSLYSTRYKFAKGYIRTIILNSNRIASIGKTSTYSLYKWN”, -0.31; for “HMNSKKETLLSYLYNHSTWSSRNDLSNFLNVSTRQVTNYINEINKNETIVLSSNKGYKINPKFIGKN”, 0.22.
In the case of “HMNSKMTYSDLIGNIEQGNVSSVELASDGKSATVTLTDNSQKQVNIPSLDSFVTYVQDHIKAGTLSVEE”, the “soluble fraction (log2)” value amounted to 0.109.
On to “HMNSKSDDELLSKTTSLLIHAAKIDENYTDKEKEIIKKTLIQLGVKESKADQIMLTAEINEE”, for which the “soluble fraction (log2)” value is -0.36.
Next, “HMNSKYILLQVSDIPKTSLVLERQFGVTEYSVQDEHTLRIYDTSLDMAAVNKALVVQDIAVISSQL”: -1.3.
Next, “HMNSLFPLSLKYLREQANITQAELAQKLDVTQQAVGRWERGQTSPDYETLKRLSVLFNVSVDYLLGV”: -0.359; “HMNSNIIKTINDELSIRKGKYGPYIMYKTKKMKRPKFKSIGDNTPDEFLADKGSISEIILWIN”: -0.452; “HMNSSHRLIGLDPGLRVTGWGIVDAIGTKLVHVANGSVKSQQNAPLATRLLELENGLEEVFDNWQPDFA”: -0.0459.
For “HMNSVLPQEVKSSLNDFFTKYAPGSIAQKLINHASFTGGKVVVTGVELTQTQADDLKKAFKDKFF” the value was 0.22.
Regarding “HMNSVTLEHIVYDFRVFNMLKGSGINDIDELIKAAEDGRLFKIIGSNLTYKRIKKSAAEFGVILPDKPG”, the “soluble fraction (log2)” value was -0.45.
On to “HMNSVYTPDPKELAKAIKIVTAAREAEQKGQGVIAVDGRMVDAPVVSQALRILELARLAGMEVSE”, for which the “soluble fraction (log2)” value was 0.22.
Consider “HMNTAIPIAIDQLRIGMYIQLGLNWMSHPFPVSSFRIASESQIEILRGLGLAEVRYVPAKSDPVP”, for which the “soluble fraction (log2)” value is -0.911.
For “HMNTDEYEQKRGEILDAAQRLIYTKGYERMSIQDILDELKISKGAFYHYFDSKQSLLEALTARMMTE” the value was -0.408.
Consider “HMNTDIHRLLDEAFVRVDMTPDAQHLKEEIRANLVARVDELEASGVPSADAARRAIAELGDVRELL”, for which the “soluble fraction (log2)” value is -0.671.
Take “HMNTFDLSKLEEIILASRDKAMKTKEFTELDNLKNLFITAGLDVQMSKNGIKLIKGPKFNSSLLEDF”: the “soluble fraction (log2)” value was -0.741.
Next, “HMNTIIIDILPKGLSIAGNQTEPKSLIQQLLMARRADPAQPILLRPAIAVPVQNVVELIDRLTAAGI”: -0.412; “HMNTISEADAKRIALERAGLTAADYVKVDYDQDDNEYEVEMRSGNTEYEVKISGSTGAVLEYDSETD”: -0.0384; “HMNTISTLEITTKKDIRILDESELLKSKSSKNNIFNYLLASGDFNLLKDKLNEIDEFSDEIISYQLN”: -0.356.
Turning to “HMNTKQRTAVMRILKQSSDPVSADDVFAALKDEYPSLALSTVYRNLERFADESMVKKDVWSDGIVRYSLAD”, the “soluble fraction (log2)” value is -0.471.
Next, “HMNTLGTNIAKLRESQKLTQEELGKLSGVSRVSIYKIETGQSTPRDTTLQNIAEALHTTPSALRS”: 0.22.
Next, “HMNTLLYAPKVSPNPFTPNADGINDVVNISYKLLRVISAVPISVEVFDLSGRLIKTLYSGVDPLGEY”: 0.425; “HMNTLPASVQPKKGRLYAVIQTKENGKSKPVWRSLGLPEGSNKSKVNKAFREVVKQFEEEYAERLAR”: 0.22; “HMNTLPTDELMKYGIINEDLSFSKKLNADDIQKFLQGYTIVADNDKNRATFQLTENNTKLKVIFLER”: -1.69.
For “HMNTLRFPEGTPEKDRMSIILASYNSGIGHVNDARRLARLNGEDPNSWEVVARYLQLKAQPEYYESEAVK” the value was -0.548; for “HMNTPAENFDKAVEKYKSTNSATEKDAAFKVIEDEWIKLSDEEKKERQDEYDSIFESEGDRV”, 0.22; for “HMNTQGWEIFEGRITTADTDLNPSGWIRIDGQRIFVISDAGFIDKGKEVSILSVDGNRVLVRK”, -0.632.
In the case of “HMNTSMIEHMDKSTFIRFVFTNPVTHDQAVAKLMEKHMWFSTEEKAEAEIDKLLNKTNSLIESGGKLTW”, the “soluble fraction (log2)” value was 0.22.
“HMNTTLQLDTILRLEKNAHLLENFVRAGFTDSELGKLTDADLLQIGVPKIGDRRRLLAALAERAH”: the “soluble fraction (log2)” value is -0.29.
“HMNTVSPAVSAQLRQELGGELNNANFQQLQQYLQAGQRDEAIVYLTSLGIESPRAVSIVNNAMDQIG”: the “soluble fraction (log2)” value was determined as 0.00938.
On to “HMNVDIVEITKNSSPNQISKVIDIGAIQIVEDLMSFGIMKAIDTPLEDSEIEQLLEKYNLIVDLIE”, for which the “soluble fraction (log2)” value is -2.19.
For the sequence “HMNVDSIPGKSGIVTQGIDNLKAMGRVTVNGMEWTARSKDGSLIEEGKVVRVYGVEGVKLIVEED”, the “soluble fraction (log2)” value was -0.72.
Next, “HMNVDSLPGEKAVVIKTIDNLRGTGQAVVNGLEWSAKSKDETIIDEGKVVRIVAVEGVKLVVEEE”: -0.252; “HMNVEALIGREGRVTDKIEANGYGRVKVDGDSWKAKSANGAEIRQNTDVRILSIDSVIITVEP”: 0.22.
